Results on 18 molecules are retold here after US20070092518A1 (published 2007).

B1: SEQ ID NO 24 (Fab, V domains shown)
VH: EVQLTESGGGLVQPGGSLRLSCAASGSIFSNHWMNWVRQAPGKGLEWIGEIRSKSINGATSYAESVKGRFIISRDDNGNSLTLEMNSLKTEDTAEYYCAQNYYGSTPDYWGQGTLVTVS
VL: EIVLTQSPDFQSVTPKEKVTITCRASQFVGSSIHWYQQKPDQSPKLLIKYASESMSGVPSRFSGSGSGTDFTFTISSLEAEDAATYYCQQSHSWPFTFGPGTKVDIK
notes: Fab, E. coli lysate
B2: SEQ ID NO 44 (Fab, V domains shown)
VH: EVQLTESGGGLVQPGGSLRLSCAASGFTFSNHWMNWVRQAPGKGLEWIGEIRSKSSYSATHYAESVKGRFIISRDDNKTDLTLEMNSLKTEDTAEYYCARNYYGSTYDYWGQGTLVTVS
VL: EIVLTQSPDFQSVTPKEKVTITCRASQFVGSSIHWYQQKPDQSPKLLIKYASESMSGVPSRFSGSGSGTDFTFTISSLEAEDAATYYCQQSHSWPFTFGPGTKVDIK
notes: Fab, E. coli lysate
B3: SEQ ID NO 40 (Fab, V domains shown)
VH: EVQLVESGGGLVQPGGSLRLSCAASGSTFSNHYMNWVRQAPGKGLEWIGEIRSKSINSATSYAESVKGRFIISRDGNGTSLYLEMNSLKTEDTAEYYCARNYYGSTYDYWGQGTLVTVS
VL: EIVLTQSPDFQSVTPKEKVTITCRASQFVGSSIHWYQQKPDQSPKLLIKYASESMSGVPSRFSGSGSGTDFTFTISSLEAEDAATYYCQQSHSWPFTFGPGTKVDIK
notes: Fab, E. coli lysate
B4: SEQ ID NO 51 (Fab, V domains shown)
VH: EVQLTESGGGLVQPGGSLRLSCRASGFIFSNHYMNWVRQAPGKGLEWIGEIRSKSSYSATSYAESVKGRFIISRDGNKNDLTLEMNSLKTEDTAEYYCARNYYGSTYDYWGQGTLVTVS
VL: EIVLTQSPDFQSVTPKEKVTITCRASQFVGSSIHWYQQKPDQSPKLLIKYASESMSGVPSRFSGSGSGTDFTFTISSLEAEDAATYYCQQSHSWPFTFGPGTKVDIK
notes: Fab, E. coli lysate
B5: SEQ ID NO 25 (Fab, V domains shown)
VH: EVQLVESGGGLVQPGGSLRLSCRASQFIFSNHYMNWVRQAPGKGLEWIGEIRSKSINSATHYAESVKGRFIISRDGNKTSLYLEMNSLKTEDTAEYYCAQNYYGSTPDYWGQGTLVTVS
VL: EIVLTQSPDFQSVTPKEKVTITCRASQFVGSSIHWYQQKPDQSPKLLIKYASESMSGVPSRFSGSGSGTDFTFTISSLEAEDAATYYCQQSHSWPFTFGPGTKVDIK
notes: Fab, E. coli lysate
B6: SEQ ID NO 31 (Fab, V domains shown)
VH: EVQLTESGGGLVQPGGSLRLSCAASQFIFSNHYMNWVRQAPGKGLEWIGEIRSKSSYGATHYAESVKGRFIISRDGNKTDLTLEMNSLKTEDTAEYYCAQNYYGSTYDYWGQGTLVTVS
VL: EIVLTQSPDFQSVTPKEKVTITCRASQFVGSSIHWYQQKPDQSPKLLIKYASESMSGVPSRFSGSGSGTDFTFTISSLEAEDAATYYCQQSHSWPFTFGPGTKVDIK
notes: Fab, E. coli lysate
B7: SEQ ID NO 52 (Fab, V domains shown)
VH: EVQLVESGGGLVQPGGSLRLSCRASGSIFSNHWMNWVRQAPGKGLEWIGEIRSKSSYSATHYAESVKGRFIISRDGNGNSLTLEMNSLKTEDTAEYYCARNYYGSTYDYWGQGTLVTVS
VL: EIVLTQSPDFQSVTPKEKVTITCRASQFVGSSIHWYQQKPDQSPKLLIKYASESMSGVPSRFSGSGSGTDFTFTISSLEAEDAATYYCQQSHSWPFTFGPGTKVDIK
notes: Fab, E. coli lysate
B8: SEQ ID NO 45 (Fab, V domains shown)
VH: EVQLVESGGGLVQPGGSLRLSCRASGFIFSNHWMNWVRQAPGKGLEWIGEIRSKSIYSATHYAESVKGRFIISRDGNGNDLTLEMNSLKTEDTAEYYCARNYYGSTPDYWGQGTLVTVS
VL: EIVLTQSPDFQSVTPKEKVTITCRASQFVGSSIHWYQQKPDQSPKLLIKYASESMSGVPSRFSGSGSGTDFTFTISSLEAEDAATYYCQQSHSWPFTFGPGTKVDIK
notes: Fab, E. coli lysate
B9: SEQ ID NO 27 (Fab, V domains shown)
VH: EVQLVESGGGLVQPGGSLRLSCAASQFIFSNHYMNWVRQAPGKGLEWIGEIRSKSSNGATHYAESVKGRFIISRDDNKNDLYLEMNSLKTEDTAEYYCAQNYYGSTPDYWGQGTLVTVS
VL: EIVLTQSPDFQSVTPKEKVTITCRASQFVGSSIHWYQQKPDQSPKLLIKYASESMSGVPSRFSGSGSGTDFTFTISSLEAEDAATYYCQQSHSWPFTFGPGTKVDIK
notes: Fab, E. coli lysate
B10: SEQ ID NO 54 (Fab, V domains shown)
VH: EVQLTESGGGLVQPGGSLRLSCAASGSIFSNHYMNWVRQAPGKGLEWIGEIRSKSIYGATSYAESVKGRFIISRDGNGNSLYLEMNSLKTEDTAEYYCAQNYYGSTPDYWGQGTLVTVS
VL: EIVLTQSPDFQSVTPKEKVTITCRASQFVGSSIHWYQQKPDQSPKLLIKYASESMSGVPSRFSGSGSGTDFTFTISSLEAEDAATYYCQQSHSWPFTFGPGTKVDIK
notes: Fab, E. coli lysate
B11: SEQ ID NO 42 (Fab, V domains shown)
VH: EVQLVESGGGLVQPGGSLRLSCAASGFTFSNHYMNWVRQAPGKGLEWIGEIRSKSSYSATSYAESVKGRFIISRDDNKNSLTLEMNSLKTEDTAEYYCARNYYGSTPDYWGQGTLVTVS
VL: EIVLTQSPDFQSVTPKEKVTITCRASQFVGSSIHWYQQKPDQSPKLLIKYASESMSGVPSRFSGSGSGTDFTFTISSLEAEDAATYYCQQSHSWPFTFGPGTKVDIK
notes: Fab, E. coli lysate
B12: SEQ ID NO 33 (Fab, V domains shown)
VH: EVQLVESGGGLVQPGGSLRLSCRASGSIFSNHYMNWVRQAPGKGLEWIGEIRSKSSNGATHYAESVKGRFIISRDDNKNSLYLEMNSLKTEDTAEYYCARNYYGSTYDYWGQGTLVTVS
VL: EIVLTQSPDFQSVTPKEKVTITCRASQFVGSSIHWYQQKPDQSPKLLIKYASESMSGVPSRFSGSGSGTDFTFTISSLEAEDAATYYCQQSHSWPFTFGPGTKVDIK
notes: Fab, E. coli lysate
B13: SEQ ID NO 43 (Fab, V domains shown)
VH: EVQLVESGGGLVQPGGSLRLSCRASGSIFSNHWMNWVRQAPGKGLEWIGEIRSKSINGATSYAESVKGRFIISRDDNGNSLTLEMNSLKTEDTAEYYCAQNYYGSTPDYWGQGTLVTVS
VL: EIVLTQSPDFQSVTPKEKVTITCRASQFVGSSIHWYQQKPDQSPKLLIKYASESMSGVPSRFSGSGSGTDFTFTISSLEAEDAATYYCQQSHSWPFTFGPGTKVDIK
notes: Fab, E. coli lysate
B14: SEQ ID NO 26 (Fab, V domains shown)
VH: EVQLVESGGGLVQPGGSLRLSCRASQFTFSNHYMNWVRQAPGKGLEWIGEIRSKSIYSATHYAESVKGRFIISRDDNKNDLTLEMNSLKTEDTAEYYCARNYYGSTYDYWGQGTLVTVS
VL: EIVLTQSPDFQSVTPKEKVTITCRASQFVGSSIHWYQQKPDQSPKLLIKYASESMSGVPSRFSGSGSGTDFTFTISSLEAEDAATYYCQQSHSWPFTFGPGTKVDIK
notes: Fab, E. coli lysate
B15: SEQ ID NO 46 (Fab, V domains shown)
VH: EVQLVESGGGLVQPGGSLRLSCRASGSTFSNHYMNWVRQAPGKGLEWIGEIRSKSSYGATSYAESVKGRFIISRDGNGNDLYLEMNSLKTEDTAEYYCAQNYYGSTPDYWGQGTLVTVS
VL: EIVLTQSPDFQSVTPKEKVTITCRASQFVGSSIHWYQQKPDQSPKLLIKYASESMSGVPSRFSGSGSGTDFTFTISSLEAEDAATYYCQQSHSWPFTFGPGTKVDIK
notes: Fab, E. coli lysate
B16: SEQ ID NO 36 (Fab, V domains shown)
VH: EVQLVESGGGLVQPGGSLRLSCAASQFTFSNHYMNWVRQAPGKGLEWIGEIRSKSIYGATSYAESVKGRFIISRDDNGTSLYLEMNSLKTEDTAEYYCARNYYGSTYDYWGQGTLVTVS
VL: EIVLTQSPDFQSVTPKEKVTITCRASQFVGSSIHWYQQKPDQSPKLLIKYASESMSGVPSRFSGSGSGTDFTFTISSLEAEDAATYYCQQSHSWPFTFGPGTKVDIK
notes: Fab, E. coli lysate
B17: SEQ ID NO 49 (Fab, V domains shown)
VH: EVQLTESGGGLVQPGGSLRLSCAASQFIFSNHWMNWVRQAPGKGLEWIGEIRSKSSYGATHYAESVKGRFIISRDGNGNSLYLEMNSLKTEDTAEYYCAQNYYGSTYDYWGQGTLVTVS
VL: EIVLTQSPDFQSVTPKEKVTITCRASQFVGSSIHWYQQKPDQSPKLLIKYASESMSGVPSRFSGSGSGTDFTFTISSLEAEDAATYYCQQSHSWPFTFGPGTKVDIK
notes: Fab, E. coli lysate
B18: SEQ ID NO 28 (Fab, V domains shown)
VH: EVQLVESGGGLVQPGGSLRLSCAASGSTFSNHWMNWVRQAPGKGLEWIGEIRSKSSYGATSYAESVKGRFIISRDGNGNSLTLEMNSLKTEDTAEYYCAQNYYGSTPDYWGQGTLVTVS
VL: EIVLTQSPDFQSVTPKEKVTITCRASQFVGSSIHWYQQKPDQSPKLLIKYASESMSGVPSRFSGSGSGTDFTFTISSLEAEDAATYYCQQSHSWPFTFGPGTKVDIK
notes: Fab, E. coli lysate

T1 sequence (P01375 77-233 limits assumed): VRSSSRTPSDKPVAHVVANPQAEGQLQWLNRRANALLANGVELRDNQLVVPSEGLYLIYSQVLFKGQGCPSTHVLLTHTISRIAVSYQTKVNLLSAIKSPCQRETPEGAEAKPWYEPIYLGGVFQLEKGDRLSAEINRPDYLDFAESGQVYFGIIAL

This assay has as its target T1, human tumor necrosis factor-α (rHuTNF-alpha, Biosource) (human, UniProt P01375 77-233).
T1 construct: Bought recombinant protein coated on ELISA plates; The TNFα of the Biacore assay is not described further; also called TNFα; human TNFα
The assay can be described thus: solid-phase ELISA, Fab lysate on coated rHuTNF-alpha. As to the method: The Fab libraries were cloned into pTrcHis2A (Cat. No. V365-20, Invitrogen, Carlsbad, Calif.). Proteins were expressed in E. coli and solid-phase ELISA was used to assess Fab binding to human TNFα. Briefly, 96-well plates were coated overnight at 4° C. with 1 μg/ml of rHuTNF-alpha (Biosource, Camarillo, Calif.) in Carbonate-bicarbonate buffer, pH9.4. After washing in PBS with 0.05% (w/v) Tween-20, the wells were blocked with 1% (w/v) BSA in PBS for 1 hour at room temperature. After washing, plates were incubated with transformed E. coli cell lysate diluted in the assay buffer (1% BSA and 0.05% Tween-20 in 10 mM PBS) for 2 hours at room temperature. Various concentrations of infliximab (0.5, 1 and 2 ng/ml) were used as positive anti-Human Kappa Light Chain Biotin/anti-penta-His Biotin control. Plates were washed and incubated with ImmunoPure Goat Anti-Human Kappa Chain, Biotin Conjugated (Cat. No. 31780, Pierce Biotechnology, Rockford, Ill.) and Penta-His Biotin Conjugate (Cat. No. 34440, QIAGEN, Valencia, Calif.) diluted 1:2000 in the assay buffer for 1 hour at room temperature. Following another washing step, plates were probed for 1 hour at room temperature with 100 μL/well of Streptavidin POD (Cat. No. 1089153, Roche Applied Science, Indianapolis, Ind.) diluted 1:4000 in the assay buffer. Plates were further washed and then incubated with 3,3′,5,5′-tetramentylbenzidine (TMB, Cat. No. 34028, Pierce Biotechnology) for 30 minutes. Substrate development was stopped by addition of 100 μL/well TMB Stop Solution (Cat. No. 50-85-05, KPL, Gaithersburg, Md.) and the absorbance was measured at 450 nm via an automated plate spectrophotometer.
(In an ELISA, binding on a coated surface is turned into a signal by an enzyme label.)
As for B1, the binding result was “binds”.
The entry for B2 is “binds”; for B3 it is “binds”; for B4 it is “binds”.
To B5 belongs “binds”; to B6, “binds”.
As for B7, the binding result is “binds”.
To B8 belongs “binds”; to B9, “binds”.
To B10 belongs “binds”; to B11, “binds”; to B12, “binds”.
To B13 belongs “binds”; to B14, “binds”; to B15, “binds”.
On to B16, for which the binding result is “binds”.
To B17 belongs “binds”; to B18, “binds”.
